Reference: EP4635976A1 (Medigene Immunotherapies GmbH, dated 2025)

Assays:
Assay in all cases: cell-based or functional assay
[1] = biological target: mismatched peptide #278 …
[2] = biological target: mismatched peptide #41 …
[3] = biological target: mismatched peptide #257 …
[4] = biological target: mismatched peptide #7 …
[5] = biological target: mismatched peptide #314 …
[6] = biological target: mismatched peptide #265 …
[7] = biological target: mismatched peptide #240 …
[8] = biological target: mismatched peptide #8 …
[9] = biological target: mismatched peptide #79 …
[10] = biological target: mismatched peptide #15 …
[11] = biological target: mismatched peptide #243 …
[12] = biological target: mismatched peptide #244 …
[13] = biological target: mismatched peptide #24 …
[14] = biological target: mismatched peptide #13 …
[15] = biological target: mismatched peptide #323 …
[16] = biological target: mismatched peptide #239 …
[17] = biological target: mismatched peptide #246 …
[18] = biological target: mismatched peptide #9 …
[19] = biological target: mismatched peptide #31 …
[20] = biological target: mismatched peptide #324 …
[21] = biological target: mismatched peptide #76 …
[22] = biological target: mismatched peptide #62 …
[23] = biological target: mismatched peptide #221 …
[24] = biological target: mismatched peptide #160 …
[25] = biological target: mismatched peptide #45 …
[26] = biological target: mismatched peptide #116 …
[27] = biological target: mismatched peptide #228 …
[28] = biological target: mismatched peptide #236 …
[29] = biological target: mismatched peptide #247 …

B1: NY-ESO specific TCR (T11.8-10-17), wild type (TCR)
TCR alpha: QKEVEQNSGPLSVPEGAIASLNCTYSDRGSQSFFWYRQYSGKSPELIMFIYSNGDKEDGRFTAQLNKASQYVSLLIRDSQPSDSATYLCAADDKIIFGKGTRLHILPNIQNPDPAVYQLRDSKSSDKSVCLFTDFDSQTNVSQSKDSDVYITDKTVLDMRSMDFKSNSAVAWSNKSDFACANAFNNSIIPEDTFFPSSDVPCDVKLVEKSFETDTNLNFQNLSVIGFRILLLKVAGFNLLMTLRLWSS
TCR beta: DAGVIQSPRHEVTEMGQEVTLRCKPISGHDYLFWYRQTMMRGLELLIYFNNNVPIDDSGMPEDRFSAKMPNASFSTLKIQPSEPRDSAVYFCASSRGGSGYTFGSGTRLTVVEDLNKVFPPEVAVFEPSKAEIAHTQKATLVCLATGFFPDHVELSWWVNGKEVHSGVSTDPQPLKEQPALNDSRYCLSSRLRVSATFWQNPRNHFRCQVQFYGLSENDEWTQDRAKPVTQIVSAEAWGRADCGITSASYHQGVLSATILYEILLGKATLYAVLVSALVLMAMVKRKDF
In the case of B1, the “IFN-γ release (IFNg-ELISA), donor MIT038” value [1] is reported as 464 pg/mL, the “IFN-γ release (IFNg-ELISA), donor MIT 045” value [1] is reported as 50.8 pg/mL and the “IFN-γ release (IFNg-ELISA), donor MIT038” value [2] is reported as 298 pg/mL. The “IFN-γ release (IFNg-ELISA), donor MIT 045” value [2] was 55.6 pg/mL, the “IFN-γ release (IFNg-ELISA), donor MIT038” value [3] was 383 pg/mL and the “IFN-γ release (IFNg-ELISA), donor MIT 045” value [3] was 57.9 pg/mL. For the same binder, the “IFN-γ release (IFNg-ELISA), donor MIT 045” value [4] was 24 pg/mL, the “IFN-γ release (IFNg-ELISA), donor MIT 045” value [5] was 26.7 pg/mL and the “IFN-γ release (IFNg-ELISA), donor MIT038” value [6] was 366 pg/mL. The “IFN-γ release (IFNg-ELISA), donor MIT 045” value [6] was 43.2 pg/mL, the “IFN-γ release (IFNg-ELISA), donor MIT038” value [7] was 237 pg/mL and the “IFN-γ release (IFNg-ELISA), donor MIT 045” value [7] was 23.4 pg/mL. For the same binder, the “IFN-γ release (IFNg-ELISA), donor MIT 045” value [8] was 24.7 pg/mL, the “IFN-γ release (IFNg-ELISA), donor MIT038” value [9] was 292 pg/mL and the “IFN-γ release (IFNg-ELISA), donor MIT 045” value [9] was 40.3 pg/mL. For the same binder, the “IFN-γ release (IFNg-ELISA), donor MIT038” value [10] was 282 pg/mL, the “IFN-γ release (IFNg-ELISA), donor MIT 045” value [10] was 47.1 pg/mL and the “IFN-γ release (IFNg-ELISA), donor MIT038” value [11] was 380 pg/mL. The “IFN-γ release (IFNg-ELISA), donor MIT 045” value [11] was 47.2 pg/mL, the “IFN-γ release (IFNg-ELISA), donor MIT038” value [12] was 441 pg/mL and the “IFN-γ release (IFNg-ELISA), donor MIT 045” value [12] was 45.4 pg/mL. For the same binder, the “IFN-γ release (IFNg-ELISA), donor MIT 045” value [13] was 24.3 pg/mL, the “IFN-γ release (IFNg-ELISA), donor MIT 045” value [14] was 20.8 pg/mL and the “IFN-γ release (IFNg-ELISA), donor MIT038” value [15] was 3700 pg/mL. For the same binder, the “IFN-γ release (IFNg-ELISA), donor MIT 045” value [15] was 658 pg/mL, the “IFN-γ release (IFNg-ELISA), donor MIT038” value [16] was 229 pg/mL and the “IFN-γ release (IFNg-ELISA), donor MIT 045” value [16] was 32.1 pg/mL. For the same binder, the “IFN-γ release (IFNg-ELISA), donor MIT038” value [17] was 321 pg/mL, the “IFN-γ release (IFNg-ELISA), donor MIT 045” value [17] was 40.9 pg/mL and the “IFN-γ release (IFNg-ELISA), donor MIT 045” value [18] was 26.5 pg/mL. For the same binder, the “IFN-γ release (IFNg-ELISA), donor MIT038” value [19] was 2130 pg/mL, the “IFN-γ release (IFNg-ELISA), donor MIT 045” value [19] was 887 pg/mL and the “IFN-γ release (IFNg-ELISA), donor MIT038” value [20] was 432 pg/mL. For the same binder, the “IFN-γ release (IFNg-ELISA), donor MIT038” value [21] was 769 pg/mL, the “IFN-γ release (IFNg-ELISA), donor MIT 045” value [21] was 150 pg/mL and the “IFN-γ release (IFNg-ELISA), donor MIT038” value [22] was 819 pg/mL. The “IFN-γ release (IFNg-ELISA), donor MIT 045” value [22] was 88.3 pg/mL, the “IFN-γ release (IFNg-ELISA), donor MIT038” value [23] was 789 pg/mL and the “IFN-γ release (IFNg-ELISA), donor MIT 045” value [23] was 101 pg/mL. For the same binder, the “IFN-γ release (IFNg-ELISA), donor MIT038” value [24] was 3620 pg/mL, the “IFN-γ release (IFNg-ELISA), donor MIT 045” value [24] was 1290 pg/mL and the “IFN-γ release (IFNg-ELISA), donor MIT038” value [25] was 1500 pg/mL. The “IFN-γ release (IFNg-ELISA), donor MIT 045” value [25] was 177 pg/mL, the “IFN-γ release (IFNg-ELISA), donor MIT 045” value [26] was 32.4 pg/mL and the “IFN-γ release (IFNg-ELISA), donor MIT038” value [27] was 234 pg/mL. For the same binder, the “IFN-γ release (IFNg-ELISA), donor MIT 045” value [27] was 35.4 pg/mL, the “IFN-γ release (IFNg-ELISA), donor MIT038” value [28] was 256 pg/mL and the “IFN-γ release (IFNg-ELISA), donor MIT 045” value [28] was 32.3 pg/mL. For the same binder, the “IFN-γ release (IFNg-ELISA), donor MIT038” value [29] was 681 pg/mL and the “IFN-γ release (IFNg-ELISA), donor MIT 045” value [29] was 80.5 pg/mL.
